The values below come from US20250297021A1 (SHANDONG SIMCERE BIOPHARMACEUTICAL CO NO 1, published 2025).

Several values for one entry are separate records, joined by “and”; a condition that tells them apart may be missing. Identical values can stand only once.

Assay [1] concerns the target T1, human BCMA-His protein (human, UniProt Q02223 1-54).
T1 construct: bought; also called human BCMA protein; not shown: His tag
T1 sequence (looked up): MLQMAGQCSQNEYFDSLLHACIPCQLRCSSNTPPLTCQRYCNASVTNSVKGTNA
The assay can be described thus: ELISA, coated human BCMA-His. A general note: An ELISA detects its analyte on a solid surface through an enzyme-linked reagent.

Assay [2] has as its target T2, human BCMA on cells (human, UniProt Q02223 1-184).
T2 construct: whole, on cells; also called H929 cells; U266 cells
T2 sequence (looked up): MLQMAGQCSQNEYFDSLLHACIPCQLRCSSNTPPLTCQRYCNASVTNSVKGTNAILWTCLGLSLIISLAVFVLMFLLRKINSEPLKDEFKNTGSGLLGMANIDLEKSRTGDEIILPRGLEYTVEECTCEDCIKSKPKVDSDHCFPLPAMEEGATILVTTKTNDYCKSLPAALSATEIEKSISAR
As to the kind of experiment: FACS, H929 cells. The method, then: (§1) The desired cells were scale-up cultured in T-75 cell culture flasks to the logarithmic growth phase, and the cells were pipetted into a single cell suspension. After the cells were counted, the cells were centrifuged and the cell pellet was resuspended in FACS buffer (PBS+2% fetal calf serum) to 2×10⁶ cells per ml, and the suspension was added to the 96-well FACS reaction plate at 50 μl per well, then the sample to be tested of the chimeric antibody was added at 50 μl per well and the mixture was incubated at 4° C. for 1 h. The obtained mixture was centrifuged and washed 3 times with a PBS buffer. […] The obtained mixture was centrifuged and washed 3 times with a PBS buffer. 100 μl of the mixture was taken for detection and result analysis by FACS (FACS Canto™, purchased from BD Company). Data analysis was performed by software (FlowJo) to obtain the mean fluorescence intensity (MFI) of the cells. Then, a software (GraphPad Prism8) was used for analysis, data fitting and EC50 calculation. The results are shown in Table 10 and FIGS. 10A-10B, FIGS. 11A-11B, and FIGS. 12A-12B. All seven chimeric antibodies bind to three types of BCMA-expressing endogenous cells.
In general terms: Flow cytometry measures light scatter and fluorescence of single cells or particles in a stream.

Assay [3] concerns the target T2, human BCMA on cells. As to the kind of experiment: FACS, U266 cells. Here is the method:
(§2) H929 cells, U266 cells and RPMI8226 cells were subjected to scale-up culture in T-75 cell culture flask to logarithmic growth phase, and the cells were pipetted to single cell suspension. After counting the cells, centrifugation was performed and the cell pellet was resuspended in FACS buffer (PBS+2% fetal calf serum) to 2×10⁶ cells per ml, and the obtained suspension was added to a 96-well FACS reaction plate at 50 μl per well.

Assay [4] deals with T2, human BCMA on cells. As to the kind of experiment: FACS, U266 cells. Here is the method:
as §1
The source holds these as a separate data set.

The target of assay [5] is T2, human BCMA on cells. The assay can be described thus: FACS, H929 cells. The method, then:
as §2
This is another data set of the same source.

The target of a further assay is T3, monkey BCMA-His protein (monkey, UniProt A0A2K5UD97 1-53).
T3 construct: bought; monkey species not further stated for this product; also called monkey BCMA protein
The assay can be described thus: ELISA, coated monkey BCMA-His.

Assay [6] has as its target T2, human BCMA on cells. The assay can be described thus: FACS, RPMI8226 cells. Here is the method: as §2
The target in assay [7] is T1, human BCMA-His protein. The assay can be described thus: competition ELISA, coated human BCMA; blocked ligand hAPRIL-biotin.
The target in assay [8] is T2, human BCMA on cells. The assay can be described thus: FACS, RPMI8226 cells. Here is the method: as §1
The source holds these as a separate data set.

Assay [9] has as its target T4, human BCMA-His protein (human, UniProt Q02223 1-54).
T4 construct: Bought protein; also called human BCMA protein; BCMA antigen protein; not shown: His tag
T4 sequence (looked up): T1 sequence (looked up)
The assay can be described thus: SPR, antibody captured on Protein A chip, BCMA-His in solution, 1:1 Langmuir. Here is the method:
(§3) A sample buffer and a running buffer were HBS-EP+ (10 mM HEPES, 150 mM NaCl, 3 mM EDTA and 0.05% surfactant P20) (GE Healthcare; BR-1006-69). The flow-through cell was set to 25° C. The sample block was set to 16° C. Both were pretreated with the running buffer. In each cycle, an antibody to be tested was first captured with a Protein A chip, and then a single concentration of BCMA antigen protein was injected. The binding and dissociation processes of the antibody and the antigen protein were recorded, and finally Glycine pH 1.5 (GE Helthcare; BR-1003-54) was used to complete chip regeneration. Binding was measured by injecting different concentrations of BCMA-His in solution for 240 s with a flow rate of 30 μL/min. The concentration started from 200 nM (see the detailed results for the actual concentration in the test) and was diluted at 1:1, making a total of 5 concentrations. The dissociation phase was monitored for up to 600 s and was triggered by switching from sample solution to running buffer. The surface was regenerated by washing with a 10 mM glycine solution (pH 1.5) for 30 s at a flow rate of 30 μL/min. Bulk refractive index difference was corrected by subtracting the response obtained from the goat anti-human Fc surface. Blank injection was also subtracted (=double reference). For calculation of apparent KD and other kinetic parameters, Langmuir 1:1 model was used. The binding rate (Kₐ), dissociation rate (Kdis) and binding affinity (KD) of the chimeric antibodies to human BCMA protein are shown in the table, wherein REGN5459-hlgG1 and HPN217-hHcAb antibodies were used as controls.
In general terms: Surface plasmon resonance follows binding to a sensor surface in real time, without labels.

Assay [10] has as its target T5, BCMA expressed endogenously on U266 and H929 cells (UniProt Q02223 1-184, limits assumed).
T5 construct: whole, on cells; The cell line (U266 or H929) is named under assay in each row; also called B cell maturation antigen; CD269
T5 sequence (looked up): T2 sequence (looked up)
The assay can be described thus: FACS on U266 cells. The method, then:
as §1
The specific method was the same as that in Example 5 (C). First, the binding of humanized antibodies to U266 cells was detected. Based on the results, some humanized antibodies were selected and tested for binding to H929 cells. […]

Assay [11] addresses T6, human BCMA-His protein (human, UniProt Q02223 1-54).
T6 construct: Analyte in the SPR assay; also called human BCMA protein; BCMA antigen protein; not shown: His tag
T6 sequence (looked up): T1 sequence (looked up)
As to the kind of experiment: SPR, antibody captured on Protein A chip, BCMA-His as analyte. The method, then:
as §3
The specific method was the same as that in Example 6. The binding rate (Kₐ), dissociation rate (Kdis) and binding affinity (KD) of the humanized antibodies to human BCMA protein are shown Table 38, wherein REGN5459-hlgG1 antibody is used as a control.

A word on the EC50 (read off the curve): it is the concentration giving half of the maximal effect. Broadly, the EC50 is the concentration needed to bring the measured effect to its halfway point. Broadly, the Kd is the constant that tells how readily two partners part at equilibrium. As a reminder, the koff is a measure of how fast the partners let go of each other. Broadly, the kon is the second-order rate constant of association.

T3 sequence (A0A2K5UD97 entry or part of it limits assumed): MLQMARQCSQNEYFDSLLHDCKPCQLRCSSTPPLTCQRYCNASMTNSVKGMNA

B1: REGN5459-hIgG1 (antibody, V domains shown)
VH: EVQLVESGGGLVQPGGSLRLSCAASGFTFSNFWMTWVRQAPGKGLEWVANMNQDGSEKYYVDSVKGRFTISRDNAKSSLYLQMNSLRAEDTAVYYCARDREYCISTSCYDDFDYWGQGTLVTVSS
VL: not shown
For the molecule B1, the “EC50 (read off the curve)” value in the assay with human BCMA-His protein [1] and in the assay with monkey BCMA-His protein was approximately 0.1 nM throughout. The EC50 is 8.39 nM and 7.74 nM in the assay with human BCMA on cells [2]; 9.12 nM with human BCMA on cells [3]; 9.52 nM and 12.8 nM with human BCMA on cells [4]; 6.78 nM with human BCMA on cells [5]; 10.4 nM with human BCMA on cells [6]; 6.79 nM and 4.52 nM in the assay with human BCMA on cells [8]. Besides, the “IC50 (read off the curve)” value with human BCMA-His protein [7] is approximately 5 nM.

B2: REGN5459-hIgG1 (antibody, V domains shown)
VH: B1 VH
VL: not shown
notes: also called REGN5459-hlgG1; control antibody
In the assay with human BCMA-His protein [9], B2 registered a Kd of 0.2 nM, a koff of 0.00017 s⁻¹ and a kon of 850000 M⁻¹ s⁻¹.

B3: REGN5459-hIgG1 (antibody, V domains shown)
VH: B1 VH
VL: not shown
notes: Positive control antibody
On to B3, for which, in assay [10], the EC50 was 9.81 nM and 19.4 nM and 9.49 nM and 18.2 nM. For the same molecule, in the assay with human BCMA-His protein [11], the Kd amounted to 0.233 nM, the koff was 0.000178 s⁻¹ and the kon stood at 766000 M⁻¹ s⁻¹.

B4: HPN217-hHcAb (VHH)
VHH: EVQLVESGGGLVQPGRSLTLSCAASTNIFSISPYGWYRQAPGKQRELVAAIHGTSTLYADSVKGRFTISRDNAKNSIYLQMNSLRPEDTALYYCNKVPWGDYHPGNVYWGQGTQVTVSS
notes: also called control antibody
Regarding B4, in the assay with human BCMA-His protein [9], the Kd is 0.818 nM, the koff was 0.00273 s⁻¹ and the kon amounted to 3.34e+06 M⁻¹ s⁻¹.
